Assay: yeast display, Sf9 membrane polyspecificity reagent, FACS + sequencing; frameworks hold sequencing errors
Summary of the method: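 Galactose induction of a Saccharomyces cerevisiae BJ5465 synthetic nanobody display library ran 36–48 hours. The cells were then stained for 1 hour at 4 °C with 10% biotinylated, detergent-solubilized Sf9 membrane reagent, pulled down on streptavidin microbeads and FACS-sorted into low and high (top ~1%) gates on expression and reagent-binding fluorescence. Labels for polyreactivity follow the gate of origin.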

Row | Sequence | polyreactivity (PSR sort gate)
1 | QVQLVESGGGLVQAGGSLRLSCAASGSIFFGNDKGWYRQAPGKERELVAGISNGGRTNYADSVKGRFTISRDNAKNTVYLQMNSLKPEDTAVYYCAKHPVYIYWSRVLVGYYSWGQGTQVTVSS | low polyreactivity
2 | QVQLVESVLGLVQAGGSLRFSCAASGSTIVRYAMVWYRPAPGKERELVAAISSSGATTYYADSVKGRFTISRDNAKNTVYLQMNSLKPEYTAVYYCDKYCRATRGLDNYWGQGTQVTVSS | high polyreactivity
3 | QVQLVESGGGLVQAGGSLRLSCAASGSIFVVYAMGWYRQPPGKERELVAAIDSGGSTYYADSVKGRFTISRDNAKNTVYLQLNSLKPEDTAVSYCADDGSTWGDYRTYGYWGQGTQVTVSS | low polyreactivity
4 | QVQLVESGGGLVQAGGILRLSCAASGFIFRDYAMGWYRQAPGKERELVAAISFTDGTTYYADSVKGRFTISRDNAKNTVYLQMNSLKPEDTAVYYCAAGYTGYTYTELDYWGQGTQVTVSS | low polyreactivity
5 | QVQLVESGGGLVQAGGSLRLSCAASGRIFVFYAMGWYRQAPGKERELVASITLTDGSTYYADSEKGRFTISRDNAKNTVYLQMNSLKPEDTAVYYCAARISGGSTFRYQRMYYWGQGTQVTVSS | low polyreactivity
6 | QVQLVESGGGLVHAGGSLRLSCAASGFTFFKYAKGWYRQAPGKERELVATISIDGITNYADSVKGRFTISRHNAKNTVYLQMNSLKPEDTAVYYCHARSLYQQLGYWGQGTQVTVSS | low polyreactivity
7 | QVQLVESGGGLVQAGGSLRLSCAAYGRIFFYYVMGWYRQAPGNERELVAGITRGGISNYADSVKGRFTISRDNAKNTVYLQMNSLKPEDTAVYYCAAAYYRDSDRRYNYWGQGTQVTVSS | high polyreactivity
8 | QVQLVESGGGLVQAGGSLRLSCAASGSIFGWYVMGWYRQEAGKERELVAANSSVGSTYYADSVKGRFTISRDNAKNTVYLQMNSLKPEDTAVYYCAKLRYPYLFWDDSEYWGQGTQVTVSS | low polyreactivity
9 | QVQLVESGGGLVQAGGSLRLSCAASGFTFSHYAKGWYRQAPGKDRELVAAITASGGNTYYADSVKGRFTISRDNAKNTVYLQMNSLKPEDTAVYYCNAVSLKFTRKYEYWGQGTQVTVSS | high polyreactivity
10 | QVQLVESGGGLVQAGGSLRLSCAASGGIFYYYAMGWYRQAPGKERELVAAISWSGGSTYYADSVKGRFTISRDNAKNTVYLQMNSLKPEDPAVYYCAPYSDFHYAQLEYDYWGQGTQVTVSS | low polyreactivity
11 | QVQLVESGGGLVQAGGSLRLSCAASGFILWYYTMGWYRQAPGKERELVAVIDWSGDSTYADSVKGRFTISRDNAKNTVYLQMNSLKPEDTAVYYCNKGYPSPQDTYYVPMDYWGQGTQVTVSS | low polyreactivity
12 | QVQLVESGGGLVQAGGSLRLSCAASGSIFVSYAMGWYRQAPGKERELVAAIRRGGTSTYYEDSVKGRFTISRDNAKNTVYLQMNSLKPEDTAVYYCAAPRYFTRYRPLGIYDYWGQGTQVTVSS | high polyreactivity
13 | QVQLVESGGGLVQAGGSLRLSCAASGSIFVFYAMGWYRQAPGKERELVAAINDGGSTHYADSVKGRFTISRDNAKNTVYLQMNSLKPEDTAVYYCAAEYVWYRYPDYWGAYDYWGQGTQVTVSS | low polyreactivity
14 | QVQLVESGGGLVQAGGSLRLSCAASGRIFWINAMGWYRQAPGKERELVATISSGSTSYADSVKGRFTISRDNAKNTVYLQMNSLKPEDTAVYYCAADFVFRWYSYTGRWYSSYDYWGQGTQVTVSS | low polyreactivity
15 | QVQLVESGGGLVQAGGSLRLSCAASGSTFNDYAMGWYRQAPGNERELVAGITWRGTSTYYADSVKGRFTISRDNAKNTVYLQMNSLKPEDTAVYYCNADHVYGGYQYDFDYWGQGTQVTVSS | low polyreactivity
16 | QVQLVESGGGLVQAGGSLRLSCAASGFTFDANAIGWYRQAPGKERELVAAISSSGGSTYYADSVKGRFTISRDNAKNTVYLQMNSLKPEDTAVYYCAADLAPGRHDYWGQGTQVTVSS | high polyreactivity
17 | QVQLVESGGGLVQAGRTLRLSCAPSGSIFSYYAMGWYRQAPGKERELVAAITSGGTTYYADSVKGRFTISRDNAKNTVYLQMNSVKPEDTAVYYCAADFVFRWYSYTGRWYSSYDYWGQGTQVTVSS | low polyreactivity
18 | QVHLVESGGGLVEAGGSLRLSCADSGNIFAWYAMGWYRQAPGKERELVADISSLGGSTYYADSVKGRFTISRDNATNTVYLQMNSLKPEDTEVYYCAAVWYWTQDYDYWGQGTQVTVSS | low polyreactivity
19 | QVQLVESGGGLVQAGGSLRLSCAASGRTFWRYAMGWYRQAPGKERELVAAISSGGRTNYADSVKGRFTISRDNAKNTVYLQMNSLKPEDTAVYYCAVKTVRSSSRNYWGQGTQVTVSS | high polyreactivity
20 | QVQLVESGGGLVQAGGSLRLSCAASGSTFDYYARGGYRQAPGKERELVAAISRTGGRTYYADSVKGRFTISRDNAKNTVNLQMNSLKPEDTAVYNCNAVTRIGGGDYDYWGQGTQVTVSS | low polyreactivity
21 | QVQLVESGGGLVQAGGSLRLSCAASGNTLYRNALGWYRQAPGKERELVAAIRLSGGSTYYADSVKGRFTISRDNAKNTVYLQMNSLKPEDTAVYYCAVRIRYYTGFYSWGQGTQVTVSS | high polyreactivity
22 | QVQLVESGGGLVQAGRSLRLSCAASGIIFAFYAMGWYRQAPGKERELVAAISIDGSTYYADSVKGRFTISRDNAKNTVYLQMNSLKPEDTAVYYCAAQYLNVYYWEDYWGQGTQVTVSS | low polyreactivity

Row | Sequence | polyreactivity (PSR sort gate)
23 | QVQLVESVGGLVQAGGRLRLSCAASGFIFYEYAMGWYRQAPGKERELDPAITSGGSTDYADSVKGLFTISRDNAKNTVYLQMNSLKPEDTAVYYCNADLFTGYYWYNYCGQGTQVTVSS | low polyreactivity
24 | QVQLVESGGGLVQAGGSLRLSCAASGRIFNWYAMGWYRKAPGKERELVAAISTDGSTYYADSVKGRFTISRDNAKNTVFLQMNSLKPEDTAVYYCAAVPGYTHLWGGPFDYWGQGTQVTVSS | low polyreactivity
25 | QVQLVESGGGLVQAGGSLRLSCAASGLTFSSYTMGWYRQAHGKERELVAAINWNGGDTYYADSVKGRFTISRDNAKNTVYLQMHSLKPEDTAVYYCNADYPYFYRFTAEYDYCGQGTQVTVSS | low polyreactivity
26 | QVQLVESGGGLVQAGGSLRLSCAASGITFGGNAMGWYRQATGKERELVAGINRSGVSTYYADSVKGRFTISRDNAKNTVYFQMNSLKPEDTAVYYCATGYFSWIYGYYYWGQGTQVTVSS | high polyreactivity
27 | QVQLVESGGGLVQAGGSLRLSCAASGITFGRYAMGWYRQAPGKERELVAAISWSGGSTYYADSVKGRFTISRDNAKNTVYLQMNSLKPEDTAVYYCATRIRTVAYNYWGQGTQVTVSS | high polyreactivity
28 | QVQLVESGGGLVQAGGSLRFSCAASGIIFRIYAMGWYRQAPGKEREFVAAISGSGDSTYYADSVKGRFTISRDNAKNTVNLQMNSLKPEDSAVYYCAADWTLVYYHEDYWGQGSQVTVSS | low polyreactivity
29 | QVQLVESGGGLVQAGGSLRLTCAASGRTFRANAMGWYRQATGKERELVAAISQRGGNTYYADSVKGRFTSSRDNAKNTVYFQMNSLKPEDTAVYYCAADITTYRRGRYEYEYWGQGTQVTVSS | high polyreactivity
30 | QVQLVESGGGLVQAGGSLRLSCAASGSTISVNAMGWYRQAPGKERELVAAISDRGGSTYYADSVKGRFTISRDNAKNTVYLQMNSLKPEDTAVYYCAALFLRVTYFRLGLYSYEYWGQGTQVTVSS | low polyreactivity
31 | QVQRVESGGGLVQAGGSLRLSSAACGRIFSTYAMGRYRQAPGKERDLVPAIDWDGGGTYYADSVKGRFTISRDNAKNTVYLQMNSLKPEDTAVYYCAAETDLANGTSPSDYWGQGTQVTVSS | low polyreactivity
32 | QVQLVESGGGLVQAGGSLRLSCAASGSIFLGNAMGWYRQAPGKERELVAAISSITGRTYYAESVKGRFTISRDNAKNTVYLQMNSLKPEDTAVYYCNKVKRSFIVKTDDYWGQGTQVTVSS | high polyreactivity
33 | QVQLVESGGGLLQAGGSLRLSCAASGSIFGDNAMVWYRQAPWKERDLVATISSSDASTYYADSVKGRFTISRDNAKNTVNLQMNSLKPEDTAVYYCAKEVTAGYHVWYDYWGQGTQVTVSS | low polyreactivity
34 | QVQLVESGGGLVQAGGSLRLSCAATGLTLKENVMGWYRQAPGKERELVAAISTGASTYYADSVKGRFTISRDNAKNTVYLQMNSLKPEDTAVYYCAKRVTRCYGYWGQGTQVTVSS | high polyreactivity
35 | QVQLVESGGGLVQAGGSLRLSCAASGSTFWEYAMGWYRQAPGKERELVAAITWSTGSTYYADSVKGRFTISRDNAKNTVYLQMNSLKPEDTAVYYCNVDWGYFYTTQGFDYWGQGTQVTVSS | high polyreactivity
36 | QVQLQESGGGLVQAGDSLRLSCAASGTISGRDSMGWYRQAPGKEREFVASIDFGTNTYYADSVKGRFTISRDNAKNTVYLQMNRLTAVYYCAAPDSQYSYWGQGTQVTESS | high polyreactivity
37 | QVQIVESGGGLVQAGGSLRLSCAASGRTFYLNAMGWYRQAPGKERELVAANRFSGGSTYYADSVKGRFTISRDNAQNTVYLQMNSLKPEDTAVYYCIAGADHALYPTVSEYGYWGQGTQVTVSS | low polyreactivity
38 | QVHLVESGGGLVQAGGSLRLSCAASGRNFDNKAMGWYRQAPGKERELVATLSRNGGSTYYADSVKGRFTISRDNAKNTVYLQINRLKRDDTAVYYCNKRTRFIPSFDYWGQGTQVTVSS | low polyreactivity
39 | QVQLVESGGGLVQAGGSLRLSCAASGSTFPQNVMGWYRQAPGKERELVAAITRSAGSTYYADSVKGRFTISRDNAKNTVYLQMNSLKPEDTAVYYCNTGRQRGDGWGQGTQVTVSS | high polyreactivity
40 | QVQLLESGGGLVQAGGSLRLSCAASGSIFDYNAMGWYRQAPGNERELVADITISDDSTYYADSVKGRFTISRDNAKNTVNLQMNSRQPEDTAVYYCAADIKYYWYYYYWAYAYDYWGQGTQVTVSS | high polyreactivity
41 | QVQLVESGGGLVQAGGSLRLSCAASGSIFGTNGMGWYRQAPGKERELVAAITRRGGSTYADSVKGRFTISRDNAKNTVYLQMNSLKPEDTAVYYCAVDQGYVVRLAWIYGYWGQGTQVSVSS | low polyreactivity
42 | QVQLVESGGGLVQAGGSLRLSCAASGITFGVYGKGWYRQEPGKERELVAAISRTGGSTYYADSVKGRFTISRDNAKNTVYLQMNSLKPEDTAVYYCNARPVGRVIGDYWGQGTQVTVSS | high polyreactivity
43 | QVQLVESGGGLVQAGGSLRLSCAASGYTFRAYAMGWYRQAPGKEREFVAAISRSGGSTYYADSVKGRFTISRDNAKNTVYLQMNSLKPEDTAVYYCARRYARITPVYPPLNYWGQGSQVTVSS | high polyreactivity
